The values that follow come from KR20150078472A (dated 2015).

The target in test [1] is T1, recombinant AIMP1/p43 (ARS-interacting multifunctional protein 1) (human, UniProt Q12904 1-312, limits assumed).
T1 construct: Purified recombinant antigen used in SPR, on Luminex beads and as the ELISA standard; It calls the target human AIMP1/p43 in the summary and claims; also called AIMP1/p43 항원; 재조합 AIMP1/p43 표준물질
T1 sequence (looked up): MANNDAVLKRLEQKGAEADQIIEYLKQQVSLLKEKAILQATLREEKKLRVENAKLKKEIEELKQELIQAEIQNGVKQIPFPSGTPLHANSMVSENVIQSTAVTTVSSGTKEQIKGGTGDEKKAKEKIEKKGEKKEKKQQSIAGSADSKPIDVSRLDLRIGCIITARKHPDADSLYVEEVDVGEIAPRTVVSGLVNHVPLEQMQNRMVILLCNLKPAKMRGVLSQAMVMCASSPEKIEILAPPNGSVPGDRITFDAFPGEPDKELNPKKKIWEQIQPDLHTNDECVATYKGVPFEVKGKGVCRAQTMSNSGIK
Put plainly: SPR (ProteOn XPR36), AIMP1/p43 amine-coupled on GLC chip, scFv 200-25 nM as analyte, 25°C.

For test [2], the target named is T2, Tryptophanyl-tRNA synthetase (WRS) (UniProt P23381 1-471, limits assumed).
T2 construct: Recombinant antigen, purity above 90%, coupled to a Luminex bead; also called 트립토파닐-tRNA 합성효소
T2 sequence (looked up): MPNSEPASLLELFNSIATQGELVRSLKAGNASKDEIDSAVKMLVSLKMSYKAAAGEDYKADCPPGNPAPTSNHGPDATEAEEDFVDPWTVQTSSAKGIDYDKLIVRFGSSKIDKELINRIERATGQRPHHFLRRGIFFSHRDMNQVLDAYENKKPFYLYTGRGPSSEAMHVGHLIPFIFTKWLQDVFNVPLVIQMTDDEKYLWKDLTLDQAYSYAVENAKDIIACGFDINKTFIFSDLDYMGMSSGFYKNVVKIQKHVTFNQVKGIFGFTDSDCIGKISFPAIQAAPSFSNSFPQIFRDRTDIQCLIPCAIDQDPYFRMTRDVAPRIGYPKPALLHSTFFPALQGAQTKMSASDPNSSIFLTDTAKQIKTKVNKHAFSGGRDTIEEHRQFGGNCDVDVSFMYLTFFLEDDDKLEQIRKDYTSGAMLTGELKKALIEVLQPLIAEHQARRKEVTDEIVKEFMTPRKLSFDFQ
Put plainly: Luminex multiplex bead assay, antigen-coupled beads, anti-HA-biotin and SA-PE detection.

In test [3] the target is T3, Asparaginyl-tRNA synthetase (NRS) (UniProt O43776 1-548, limits assumed).
T3 construct: Recombinant antigen, purity above 90%, coupled to a Luminex bead; also called 아스파라기닐딜-tRNA 합성효소
T3 sequence (looked up): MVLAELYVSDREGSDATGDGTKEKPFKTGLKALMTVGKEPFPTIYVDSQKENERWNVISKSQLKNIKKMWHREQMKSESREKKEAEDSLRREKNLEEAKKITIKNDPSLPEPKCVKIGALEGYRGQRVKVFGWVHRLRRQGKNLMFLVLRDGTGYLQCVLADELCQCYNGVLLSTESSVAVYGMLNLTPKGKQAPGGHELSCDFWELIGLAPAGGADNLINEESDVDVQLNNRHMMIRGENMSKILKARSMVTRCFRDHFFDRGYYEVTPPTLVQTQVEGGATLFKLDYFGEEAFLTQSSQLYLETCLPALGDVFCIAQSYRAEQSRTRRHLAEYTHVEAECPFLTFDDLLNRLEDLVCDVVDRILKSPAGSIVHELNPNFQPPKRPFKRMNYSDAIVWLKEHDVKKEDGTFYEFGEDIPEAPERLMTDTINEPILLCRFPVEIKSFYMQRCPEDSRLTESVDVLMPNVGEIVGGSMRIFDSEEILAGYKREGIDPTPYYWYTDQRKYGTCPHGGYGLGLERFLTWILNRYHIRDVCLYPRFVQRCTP
The description is as above.

Test [4] has as its target T4, Tyrosyl-tRNA synthetase (YRS) (UniProt P54577 1-528, limits assumed).
T4 construct: Recombinant antigen, purity above 90%, coupled to a Luminex bead; also called 타이로실-tRNA 합성효소
T4 sequence (looked up): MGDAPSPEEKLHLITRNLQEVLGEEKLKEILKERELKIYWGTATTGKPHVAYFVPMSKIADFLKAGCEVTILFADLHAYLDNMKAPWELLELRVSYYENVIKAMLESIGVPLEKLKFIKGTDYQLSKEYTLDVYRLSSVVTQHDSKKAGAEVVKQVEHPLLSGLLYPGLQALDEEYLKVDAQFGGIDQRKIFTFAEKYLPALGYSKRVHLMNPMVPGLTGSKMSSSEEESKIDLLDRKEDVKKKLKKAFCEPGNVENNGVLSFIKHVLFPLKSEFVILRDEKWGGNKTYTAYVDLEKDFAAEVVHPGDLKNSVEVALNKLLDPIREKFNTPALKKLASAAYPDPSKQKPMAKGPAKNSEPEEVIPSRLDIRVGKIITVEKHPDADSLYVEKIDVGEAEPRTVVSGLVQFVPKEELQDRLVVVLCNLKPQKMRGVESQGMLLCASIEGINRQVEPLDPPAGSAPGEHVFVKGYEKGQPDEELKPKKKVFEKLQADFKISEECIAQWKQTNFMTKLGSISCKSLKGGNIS
Described as above.

Test [5] addresses T5, Seryl-tRNA synthetase (SRS) (UniProt P49591 1-514, limits assumed).
T5 construct: Recombinant antigen, purity above 90%, coupled to a Luminex bead; also called 세릴-tRNA 합성효소
The test is described as above.

The target in test [6] is T6, Glycyl-tRNA synthetase (GRS) (UniProt P41250 55-739, limits assumed).
T6 construct: Recombinant antigen, purity above 90%, coupled to a Luminex bead; also called 글리실-tRNA 합성효소
T6 sequence (looked up): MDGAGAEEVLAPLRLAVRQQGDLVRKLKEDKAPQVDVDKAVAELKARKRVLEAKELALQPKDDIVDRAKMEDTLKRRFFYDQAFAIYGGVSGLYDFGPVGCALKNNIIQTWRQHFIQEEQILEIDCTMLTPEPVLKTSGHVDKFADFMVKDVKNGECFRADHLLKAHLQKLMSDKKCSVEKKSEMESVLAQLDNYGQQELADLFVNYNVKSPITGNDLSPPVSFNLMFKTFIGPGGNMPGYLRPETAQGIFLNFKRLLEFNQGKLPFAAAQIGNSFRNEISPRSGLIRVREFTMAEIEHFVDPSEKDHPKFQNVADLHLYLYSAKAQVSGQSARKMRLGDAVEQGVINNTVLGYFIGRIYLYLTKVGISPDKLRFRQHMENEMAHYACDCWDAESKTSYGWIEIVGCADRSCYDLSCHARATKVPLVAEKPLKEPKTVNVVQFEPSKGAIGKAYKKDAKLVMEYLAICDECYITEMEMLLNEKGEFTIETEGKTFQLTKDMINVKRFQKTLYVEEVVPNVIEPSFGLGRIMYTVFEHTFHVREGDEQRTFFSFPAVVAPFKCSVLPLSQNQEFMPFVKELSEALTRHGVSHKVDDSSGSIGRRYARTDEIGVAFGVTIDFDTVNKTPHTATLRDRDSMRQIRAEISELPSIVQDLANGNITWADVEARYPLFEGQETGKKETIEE
The description is as above.

Test [7] concerns the target T7, Lysyl-tRNA synthetase (KRS) (UniProt Q15046 1-597, limits assumed).
T7 construct: Recombinant antigen, purity above 90%, coupled to a Luminex bead; also called 리실-tRNA 합성효소
Described as above.

Test [8] has as its target T8, Histidyl-tRNA synthetase (HRS) (UniProt P12081 1-509, limits assumed).
T8 construct: Recombinant antigen, purity above 90%, coupled to a Luminex bead; also called 히스티딜-tRNA 합성효소
T8 sequence (looked up): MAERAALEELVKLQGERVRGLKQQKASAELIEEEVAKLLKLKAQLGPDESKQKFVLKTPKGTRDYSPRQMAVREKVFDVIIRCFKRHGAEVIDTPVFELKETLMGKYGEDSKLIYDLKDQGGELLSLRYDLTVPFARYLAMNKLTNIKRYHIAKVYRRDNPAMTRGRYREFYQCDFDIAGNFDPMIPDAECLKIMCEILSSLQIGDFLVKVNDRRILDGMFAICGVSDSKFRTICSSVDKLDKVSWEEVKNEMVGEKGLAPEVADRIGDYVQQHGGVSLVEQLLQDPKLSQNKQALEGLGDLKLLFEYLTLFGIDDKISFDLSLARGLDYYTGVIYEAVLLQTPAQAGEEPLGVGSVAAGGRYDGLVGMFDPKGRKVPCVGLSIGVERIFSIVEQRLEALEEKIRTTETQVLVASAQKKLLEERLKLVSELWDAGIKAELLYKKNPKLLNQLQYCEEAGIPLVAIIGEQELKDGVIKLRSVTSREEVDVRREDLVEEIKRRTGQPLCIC
Described as above.

The target of test [9] is T9, AIMP1/p43 natively expressed in human cells (HeLa cell lysate) (human, UniProt Q12904 2-312, limits assumed).
T9 construct: Endogenous protein, denatured on a western blot; also called human 세포에서 원래 발현된 AIMP1/p43
T9 sequence (looked up): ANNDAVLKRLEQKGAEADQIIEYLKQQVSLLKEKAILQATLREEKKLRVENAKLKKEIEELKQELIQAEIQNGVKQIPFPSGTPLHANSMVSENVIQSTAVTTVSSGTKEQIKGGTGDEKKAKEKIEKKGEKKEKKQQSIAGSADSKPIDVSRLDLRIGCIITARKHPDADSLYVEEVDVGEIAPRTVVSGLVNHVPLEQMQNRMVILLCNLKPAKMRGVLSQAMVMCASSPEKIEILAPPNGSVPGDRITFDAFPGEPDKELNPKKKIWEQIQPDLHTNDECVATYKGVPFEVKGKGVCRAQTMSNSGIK
Put plainly: western blot on HeLa cell lysate, periplasmic scFv, anti-HA-HRP detection.

T5 sequence (P49591 whole entry): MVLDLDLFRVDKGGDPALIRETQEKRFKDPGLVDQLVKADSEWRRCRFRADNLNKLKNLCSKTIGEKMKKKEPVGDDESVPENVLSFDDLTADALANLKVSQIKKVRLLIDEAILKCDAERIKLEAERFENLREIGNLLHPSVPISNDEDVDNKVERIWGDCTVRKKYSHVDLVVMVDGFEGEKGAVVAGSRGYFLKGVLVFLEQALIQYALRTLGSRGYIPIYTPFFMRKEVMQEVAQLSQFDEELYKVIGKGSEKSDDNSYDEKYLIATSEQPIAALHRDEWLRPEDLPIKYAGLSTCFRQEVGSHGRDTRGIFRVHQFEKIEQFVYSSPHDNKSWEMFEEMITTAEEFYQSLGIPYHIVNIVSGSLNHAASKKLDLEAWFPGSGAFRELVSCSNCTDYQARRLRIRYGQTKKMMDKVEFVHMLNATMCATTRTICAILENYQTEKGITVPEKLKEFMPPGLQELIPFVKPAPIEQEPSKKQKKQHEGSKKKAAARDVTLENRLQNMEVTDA
T7 sequence (Q15046 whole entry): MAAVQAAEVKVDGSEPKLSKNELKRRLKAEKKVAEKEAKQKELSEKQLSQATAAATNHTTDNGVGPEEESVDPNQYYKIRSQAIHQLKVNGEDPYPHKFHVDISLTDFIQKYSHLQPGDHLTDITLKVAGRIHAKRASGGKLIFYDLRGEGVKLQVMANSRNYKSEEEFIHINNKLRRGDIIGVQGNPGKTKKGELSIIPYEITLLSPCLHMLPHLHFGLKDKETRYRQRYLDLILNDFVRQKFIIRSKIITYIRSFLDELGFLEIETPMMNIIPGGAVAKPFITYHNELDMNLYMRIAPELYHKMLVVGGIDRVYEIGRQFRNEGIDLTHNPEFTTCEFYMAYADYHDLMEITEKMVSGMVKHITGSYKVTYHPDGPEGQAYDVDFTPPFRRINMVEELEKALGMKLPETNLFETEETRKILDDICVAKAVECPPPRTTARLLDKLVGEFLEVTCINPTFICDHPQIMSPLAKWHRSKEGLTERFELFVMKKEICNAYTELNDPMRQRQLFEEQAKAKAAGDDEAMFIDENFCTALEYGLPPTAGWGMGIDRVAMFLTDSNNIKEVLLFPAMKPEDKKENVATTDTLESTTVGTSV

B1: anti-AIMP1/p43 scFv Biocon-AM1-1 (scFv)
scFv: EVQLLEFLGEGLVQPGGSLRLSCAASGFTFSSYDMSWVRQAPGKGLEWVSVISSDGGSTYYADSVRGRFTISRDNSKNTLYLQMNSLRAEDTAVYYCAKDVMKTGTLVFDYWGQGTLVTVSSGGGGSGGGGSGGGGSQSVLTQPPSASGTPGQRVTISCSGSSSNIGSNDVSWYQQLPGTAPKLLIYADSKRPSGVPDRFSGSKSGTSASLAISGLRSEDEADYYCGSWDDSLSGYVFGGGTKLTVL
notes: Expressed from pComb3X in the E. coli periplasm; also called antibody i)
Turning to B1, the binding result in test [1] is reported as “binds”; in test [2] it was “no binding”; in test [3], “no binding”; in test [4], “no binding”; in test [5], “no binding”; in test [6], “no binding”. Besides, the binding result is “no binding” in test [7], “no binding” in [8] and “binds” in test [9].

B2: anti-AIMP1/p43 scFv Biocon-AM1-2 (scFv)
scFv: EVQLLESGGGLVQPGGSLRLSCAASGFTFSNYDMSWVRQAPGKGLEWVSSIYPNGSSKYYADSVKGRFTISRDNSKNTLYLQMNSLRAEDTAVYYCARDVLLCISMRCYYADGMDVWGQGTLVTVSSGGGGSGGGGSGGGGSQSVLTQPPSASGTPGQRVTISCSGSSSNIGNNAVNWYQQLPGTAPKLLIYANSHRPSGVPDRFSGSQSGTSASLAISGLRSEDEADYYCGSWDSSLNGYVFGGGTKLTVL
notes: Expressed from pComb3X in the E. coli periplasm; also called antibody ii)
With B2, the binding result in [1] is “binds”; in test [2], “no binding”; in [3] it was “no binding”; in [4], “no binding”; in [5], “no binding”; in test [6], “no binding”. The results for the binding result in test [7], in test [8] and in test [9] were “no binding”, “no binding” and “binds”, respectively.
